Patent US20130345135A1 (WISCONSIN ALUMNI RESEARCH FOUNDATION, published 2013)

Molecular target: myosin in murine skinned myocardium (principal isoform alpha-cardiac myosin) (mouse, UniProt Q02566 1-1938)
Assay: cell-based or functional assay

Chain of myosin in murine skinned myocardium (principal isoform alpha-cardiac myosin) (Q02566 whole entry, canonical isoform): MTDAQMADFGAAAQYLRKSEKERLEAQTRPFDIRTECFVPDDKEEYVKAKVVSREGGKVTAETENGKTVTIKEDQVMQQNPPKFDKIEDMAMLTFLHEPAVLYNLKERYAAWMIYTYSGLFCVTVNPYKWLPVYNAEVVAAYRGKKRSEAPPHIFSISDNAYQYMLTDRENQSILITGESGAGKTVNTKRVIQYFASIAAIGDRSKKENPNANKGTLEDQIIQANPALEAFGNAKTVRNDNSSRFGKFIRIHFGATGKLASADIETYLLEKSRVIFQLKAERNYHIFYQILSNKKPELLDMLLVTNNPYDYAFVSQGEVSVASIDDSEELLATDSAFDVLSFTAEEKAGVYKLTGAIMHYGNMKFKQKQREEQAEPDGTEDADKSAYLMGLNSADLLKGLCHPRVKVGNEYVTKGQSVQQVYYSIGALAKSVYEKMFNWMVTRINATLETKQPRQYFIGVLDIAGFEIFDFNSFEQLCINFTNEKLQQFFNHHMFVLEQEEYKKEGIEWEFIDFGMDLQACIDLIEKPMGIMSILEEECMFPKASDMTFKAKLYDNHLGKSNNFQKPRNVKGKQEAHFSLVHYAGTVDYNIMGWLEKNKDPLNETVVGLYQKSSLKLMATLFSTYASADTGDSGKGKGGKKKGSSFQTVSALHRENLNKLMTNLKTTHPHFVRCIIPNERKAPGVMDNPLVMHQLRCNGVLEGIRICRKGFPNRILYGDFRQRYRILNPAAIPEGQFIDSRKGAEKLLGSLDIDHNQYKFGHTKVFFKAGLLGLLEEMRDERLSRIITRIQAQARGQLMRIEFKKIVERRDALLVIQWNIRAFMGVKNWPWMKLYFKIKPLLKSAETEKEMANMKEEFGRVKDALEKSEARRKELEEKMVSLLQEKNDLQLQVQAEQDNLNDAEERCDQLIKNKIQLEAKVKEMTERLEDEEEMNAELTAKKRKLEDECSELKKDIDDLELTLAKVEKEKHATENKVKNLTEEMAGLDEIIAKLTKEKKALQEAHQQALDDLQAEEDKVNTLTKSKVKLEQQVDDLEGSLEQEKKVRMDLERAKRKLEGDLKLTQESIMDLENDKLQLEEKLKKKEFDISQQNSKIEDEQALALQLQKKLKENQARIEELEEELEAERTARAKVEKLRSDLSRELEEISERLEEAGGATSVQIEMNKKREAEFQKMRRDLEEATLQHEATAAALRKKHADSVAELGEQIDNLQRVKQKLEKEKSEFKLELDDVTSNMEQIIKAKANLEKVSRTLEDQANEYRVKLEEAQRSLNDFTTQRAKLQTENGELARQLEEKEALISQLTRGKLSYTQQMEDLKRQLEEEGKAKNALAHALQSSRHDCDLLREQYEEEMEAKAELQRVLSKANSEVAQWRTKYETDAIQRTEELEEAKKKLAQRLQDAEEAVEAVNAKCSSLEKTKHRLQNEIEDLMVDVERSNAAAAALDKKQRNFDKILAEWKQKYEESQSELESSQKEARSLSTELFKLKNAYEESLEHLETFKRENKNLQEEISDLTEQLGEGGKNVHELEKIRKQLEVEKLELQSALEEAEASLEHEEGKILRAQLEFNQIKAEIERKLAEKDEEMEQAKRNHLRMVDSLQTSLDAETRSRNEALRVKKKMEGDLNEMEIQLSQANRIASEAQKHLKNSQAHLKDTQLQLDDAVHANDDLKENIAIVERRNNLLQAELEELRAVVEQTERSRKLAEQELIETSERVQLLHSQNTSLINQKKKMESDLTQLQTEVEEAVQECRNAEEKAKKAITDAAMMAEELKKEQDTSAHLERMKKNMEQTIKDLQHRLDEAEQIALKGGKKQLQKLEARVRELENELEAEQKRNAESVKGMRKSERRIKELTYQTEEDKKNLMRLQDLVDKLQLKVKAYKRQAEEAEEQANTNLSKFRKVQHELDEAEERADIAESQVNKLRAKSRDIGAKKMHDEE

force at intermediate pCa (scaled to force at pCa 4.5), mouse, 50 uM peptide, fold of control: ~2 x control
force at pCa 5.9 (scaled to force at pCa 4.5), mouse, 50 uM peptide, fold of untreated: ~3 x (fold of untreated force)
B1: peptide 302A (peptide)
peptide: FSSLLKKRDAFRRDAKLE
